# Values joined by “and” are separate entries in the source; they are usually repeats but may differ in a detail not shown here. Equal entries are not always repeated. “Also recorded” adds a separate entry of the source.
# Assays:
# [1] = tested on: d(A15)—PO4^− oligomer; assay: 3′ phosphohydrolase comparison of RM378 and T4 PNK on 3′ phosphorylated oligomer; format: biochemical; conditions: 0.1 mM substrate, 20 units enzyme, pH 6, 2 hours, 37° C. (T4) / 70° C. (RM378)
# Protocol: (§4) Comparison was done between RM378 and T4 PNK using CAMP, 3′TMP and d(A15)—PO4^− oligomer as substrates, all in 0.1 mM concentration with 20 units of the enzymes in 20 μL reaction volumes using potassium acetate buffer pH 6 with both Mg^2+ and Mn^2+ as the divalent cation. The reactions were carried out for 2 hours at 37° C. and 70° C. for T4 and RM378 PNK, respectively.
# [2] = tested on: partial mircococcal nuclease digested calf thymus DNA or DNA/RNA oligomers; assay: 5′ kinase standard PNK assay (conversion of γ-32P-ATP); format: biochemical; conditions: for increase in 5′ kinase activity by PEG6000: 5-10% PEG6000; for 5′ kinase activity with Mn^2+ compared to Mg^2+: divalent cation essential
# Protocol: The 5′-kinase activity may be determined by an appropriate assay such as an assay developed for T4 PNK that measures conversion of ATP labelled with radioactive gamma-phosphate group (Richardson, C. C. (1965) Proc Natl Acad Sci U.S.A. 54, 158-165). The standard assay may be modified according to the requirement of a specific PNK. For example, for RM378 PNK the typical reaction conditions are 50 mM MOPS buffer pH 8.5, 1 mM DTT, 10 mM MgCl2, 25 μg/ml BSA, 1 mM spermidine and 5% PEG6000, 100 μM ATP (mixture of normal and γ-32P-ATP) and 0.5 mg/ml partial micrococcal nuclease digested calf thymus DNA or 50-100 μM DNA/RNA oligomers, and 0.0001-0.001 mg/ml PNK enzyme. The reaction mixture is then incubated at 70° C. for 15-30 minutes.
# (§1) The standard PNK assay developed by Richardsson (Richardson, C. C. (1965) Proc Natl Acad Sci USA 54, 158-165) that measures conversion of γ-32P-ATP, was used for characterization of the RM378 PNK with some minor modifications. Standard reaction conditions were: 50 mM MOPS buffer pH 8.5, 1 mM DTT, 10 mM MgCl2, 25 μg/ml BSA, 1 mM spermidine and 5% PEG6000, 100 μM ATP (mixture of normal and γ-32P-ATP) and 0.5 mg/ml partial mircococcal nuclease digested calf thymus DNA or 50-100 μM DNA/RNA oligomers, and 0.0001-0.001 mg/ml PNK enzyme, incubated at 70° C. for 15-30 minutes.
# [3] = 5′ kinase reaction, ATP titration; format: biochemical; conditions: Lineweaver-Burk plot
# Protocol: as §1
# (§2) Titration curves for ATP, r(A20) and single stranded d(A20) oligomers were done to calculate Km values and find the maximum velocity of the 5′ kinase reaction. The results are shown for ATP in FIG. 4B and for, r(A20) and d(A20) in FIGS. 4C.
# [4] = tested on: d(A20); assay: 5′ kinase reaction, ssDNA oligomer titration and labelling; format: biochemical
# Protocol: as §1, §2
# (§3) To investigate the completeness of the 5′ kinase reaction, both r(A20) and d(A20) oligos at 20 μM concentration were labeled in a 10 μM ^32P labeled ATP mixture under optimal conditions. […] The RM378 PNK is therefore an excellent enzyme for nucleic acid labeling at elevated temperatures.
# [5] = tested on: r(A20); assay: 5′ kinase reaction, RNA oligomer titration and labelling; format: biochemical
# Protocol: as §1, §2, §3
# [6] = 3′ phosphohydrolase assay (phosphate release, Biomol Green) on CAMP; conditions: for 3′ phosphohydrolase activity on CAMP, enzyme comparison: 20 units enzyme, pH 6, 2 hours, 37° C. (T4) / 70° C. (RM378)
# Protocol: (§5) For example, the following assay can be used: in a potassium acetate buffer, pH 6.0, with 5 mM MnCl2, 1 mM DTT, and 10 mM KCl2, the enzyme is incubated (at 0.05 mg enzyme/ml) with substrate, such as 0.1-5 mM 3′-thymidine mono-phosphate (3′-TMP) or cyclic 2′-3′cyclic adenosine mono-phosphate (cAMP), for 30-60 minutes at suitable temperature, for example at 70-75° C. for RM378 kinase. The reaction is then quenched by adding 90 μL of Biomol Green reagent (Biomol Research Laboratories, Plymouth Meeting, Pa.) to 10 μL reaction. The release of phosphate is then measured at A 620 nm in a spectrophotometer and compared to a phosphate standard curve.
# (§6) After determination of pH, cation and apparent temperature optimum, the standard phosphohydrolase assay was: Potassium acetate buffer pH 6.0, 5 mM MnCl2, 1 mM DTT, 10 mM KCl2, 0.1-5 mM CAMP and 0.05 mg/ml PNK. Reaction time was 30-60 minutes at 70-75° C. The reaction was quenched by adding 90 μL of Biomol Green reagent (Biomol Research Laboratories, Plymouth Meeting, Pa.) to 10 μL reaction. The release of phosphate was measured at A 620 nm in a Sunrise Absorbance Reader (Tecan Group Ltd, Maennedorf, Switzerland) and compare to a phosphate standard curve.
# (§7) The characterization of the phosphohydrolase activity was done using two substrates: 3′-thymidine mono-phosphate (3′TMP) and cyclic 2′-3′cyclic adenosine mono-phosphate (cAMP). Determination of pH optimum was done with MOPS and potassium acetate buffers using 0.1 mM CAMP and 0.05 mg/ml PNK, apparent T optimum was also done under the standard condition by assaying at different temperatures. Protein concentration curve was done with CAMP at pH 6 in K-acetate buffer and different amount of PNK. Substrate concentration curves were done for CAMP and 3′TMP, under the standard conditions using different amount of substrates.
# as §4
# [7] = tested on: partial mircococcal nuclease digested calf thymus DNA or DNA/RNA oligomers; assay: 5′ kinase standard PNK assay (conversion of γ-32P-ATP); format: biochemical; conditions: standard assay at different temperatures for one hour
# [8] = tested on: ssDNA oligomer; assay: Effect of ADP on 5′ kinase, dephosphorylation and phosphate exchange reactions; format: biochemical; conditions: for effect of ADP on 5′ kinase activity: 5′ hydroxylated ssDNA, increasing ADP; for phosphate exchange reaction on 5′ phosphorylated oligomer: independent of ADP concentration, 0 to 1 mM ADP; for effect of ADP on dephosphorylation of 5′ phosphorylated ssDNA: only ADP and 32P-labeled oligomer, no ATP
# Protocol: Effect of ADP was tested on three kind of reactions i) exchange reaction ii) 5′ kinase reaction and iii) dephosphosphorylation. This was done, by titrating different amounts of ADP to reaction mixtures containing i) 10 μM phosphorylated ssDNA oligo 10 μM γ-^32P-ATP, ii) 10 μM 5′ hydroxylated ssDNA oligomer with 10 μM γ-^32P-ATP, and iii) with 5′ ^32P-labeled ssDNA oligomer without ATP.
# The effect of addition of ADP to 5′ kinase activity, dephosphorylation, and phosphate exchange was studied in controlled assay with 10:10 μM ATP and oligomer and by titrating the ADP concentration. […] On the other hand, when labelling an already phosphorylated oligomer, the exchange reaction was overall about 5-8% independent of the ADP concentration, from 0 to 1 mM ADP.
# [9] = 3′ phosphohydrolase assay (phosphate release, Biomol Green) on 3′TMP; format: biochemical
# Protocol: as §5, §6, §7
# Comparison was done between RM378 and T4 PNK using CAMP, 3′TMP and d(A15)—PO4^− oligomer as substrates, all in 0.1 mM concentration with 20 units of the enzymes in 20 μL reaction volumes using potassium acetate buffer pH 6 with both Mg^2+ and Mn^2+ as the divalent cation. […]
molecule,measurement,setting,value
"RM378 PNK: novel thermostable polynucleotide kinase (5′-kinase and 3′-phosphatase activity) from the thermophilic bacteriophage RM378, SEQ ID NO: 2 (protein, Bacteriophage RM378; HDmotif (66)..(67) HD motif is characteristic of HD phophohydrolase family of enzymes) MPNFITNIRNSRFKEVLTEMYHCHHESEYHLEGNVLNHTLMVLQVVDKITADHREQTNLSLTALLHDSGKPYTRVVERGRVMFPGHEGVSTYIAPLLLCEVLRDSLITPKDAIQILYGVNYHMLHWKNPNLFMRLFTEMVNYTCLYNFLKKFNQCDLKGRVSTKPQKQEFPVIHYFENTPIGTVERHVYFMIGVPGSGKSTFLQKVGEGAIVSRDEIMMEYAAEIGITGDYNTVFREIHNNPMHKTKVNNRYMNAFRKAVEENEKVFVDATNMSYKSRRRFYNALRRDIAETVGYHYIVMLPDYFTCIERAENREGKSISREVVTDIARSLLLPCREHPNSIDTTIYMSDGHDEHVLRVAW","3′ phosphohydrolase activity on d(A15)-3′PO4− oligomer, enzyme comparison",[1],no detectable activity on the oligomer
same,"3′ phosphohydrolase activity on d(A15)-3′PO4− oligomer, enzyme comparison",[1]; listed as RM378,no activity on the oligomer
same,effect of spermidine on 5′ kinase activity,[2],limited
same,increase in 5′ kinase activity by PEG6000,[2],multi-fold
same,increase in 5′ kinase activity by PEG6000,[2]; listed as PNK,3-4 fold and 4 fold
same,Mg^2+ concentration at which maximum 5′ kinase activity was reached,[2]; Mg^2+,100 µM
same,Mn^2+ concentration at which maximum 5′ kinase activity was reached,[2]; Mn^2+,10 µM
same,effect of Mn^2+ concentration over 100 μM on 5′ kinase reaction,[2]; Mn^2+ over 100 μM,severely inhibited the reaction
same,effect of PEG6000 at higher concentrations on 5′ kinase reaction,[2]; PEG6000 above 5-10%,inhibited the 5′ kinase reaction at higher concentrations
same,effect of NaCl and KCl on PNK activity,[2]; concentrations higher than 10 mM,steady decrease in activity
same,5′ kinase activity with Mn^2+ compared to Mg^2+,[2],both Mg2+ and Mn2+ work equally well
same,5′ kinase activity with Mn^2+ compared to Mg^2+,[2]; listed as PNK,Activity was similar for Mn^2+ and Mg^2+
same,Km,[3],20 µM
same,"completeness of 5′ kinase labelling reaction, DNA","[4]; 20 μM d(A20), 10 μM 32P-labeled ATP, 70° C., 30 min",the ATP was depleted; also recorded: completely depleted the ATP when using 5 U per reaction
same,Vmax of 5′ kinase reaction on d(A20),[4]; Example 2,220 μmolmg^−1h^−1
same,Vmax of 5′ kinase activity on DNA,[4]; FIG. 6C legend,160 µmol/h/mg
same,5′ kinase activity on ssDNA compared to RNA,[4]; d(A20) versus r(A20),somewhat better activity on ssDNA when compared to RNA
same,Km,"[4]; single stranded d(A20), read-out: Km for DNA, 5′ kinase reaction",~1.3 µM and 1.5 µM
same,"completeness of 5′ kinase labelling reaction, RNA","[5]; 20 μM r(A20), 10 μM 32P-labeled ATP, 70° C., 30 min",the ATP was depleted; also recorded: completely depleted the ATP when using 5 U per reaction
same,Vmax of 5′ kinase reaction on r(A20),[5]; Example 2,160 μmolmg^−1h^−1
same,Vmax of 5′ kinase activity on RNA,[5]; FIG. 6C legend,220 µmol/h/mg
same,Km,[5]; r(A20),~1.5 µM and 1.3 µM
same,pH range with >40% 3′ phosphohydrolase activity,[6],5.5-7.0 pH
same,temperature range with good (>50%) 3′ phosphohydrolase activity,[6],65-80 °C
same,"3′ phosphohydrolase activity on CAMP, enzyme comparison",[6]; 0.1 mM substrate,much better activity on the CAMP versus 3′-TMP
same,"3′ phosphohydrolase activity on CAMP, enzyme comparison","[6]; 0.1 mM substrate, listed as RM378",high activity on CAMP
same,higher 3′ phosphohydrolase activity with Mn^2+ than Mg^2+,"[6]; CAMP as substrate, 1 mM cation",5-10 fold
same,"3′ phosphohydrolase activity in presence of Mg2+, enzyme comparison","[6]; Mg2+ as cation, 0.1 mM substrate",little activity in presence of Mg2+
same,apparent temperature optimum of 3′ phosphohydrolase activity,[6]; measured for one hour,75 °C
same,pH optimum of 3′ phosphohydrolase activity,"[6]; potassium acetate pH 4-6 and MOPS pH 6-9, 0.1 mM CAMP, 0.05 mg/ml PNK",~6 pH
same,Km,"[6]; read-out: Km for CAMP, 3′ phosphohydrolase reaction, standard conditions, Mn2+",700 µM
same,Vmax of 3′ phosphohydrolase reaction on CAMP,"[6]; standard conditions, Mn2+",13.5 μmolmg^−1h^−1
same,3′ phosphohydrolase activity on CAMP relative to 3′TMP,"[6]; substrate titration, standard assay conditions with Mn2+",much more phosphohydrolase activity on CAMP compared to 3′TMP; also recorded: several-fold higher on CAMP than 3′TMP
same,apparent temperature optimum of 5′ kinase activity,[7],65-70 °C
same,effect of ADP on 5′ kinase activity,[8],inhibited as the concentration of ADP increased
same,effect of ADP on 5′ kinase activity,[8]; listed as PNK,decreased with increasing ADP concentration
same,ADP concentration giving complete inhibition of 5′ kinase activity,[8]; 10:10 μM ATP and oligomer,50 µM
same,phosphate exchange reaction on 5′ phosphorylated oligomer,[8],3-8%
same,phosphate exchange reaction on 5′ phosphorylated oligomer,[8]; listed as PNK,5-8%
same,effect of ADP on dephosphorylation of 5′ phosphorylated ssDNA,[8],The dephosphorylation increased as the ADP concentration increased
same,effect of ADP on dephosphorylation of 5′ phosphorylated ssDNA,[8]; listed as PNK,the level of dephosphorylation increased as the ADP concentration was increased
same,"3′ phosphohydrolase activity on 3′TMP, enzyme comparison","[9]; 0.1 mM substrate, 20 units enzyme, pH 6, 2 hours, 37° C. (T4) / 70° C. (RM378)",some activity on 3′TMP
same,Vmax of 3′ phosphohydrolase reaction on 3′TMP,"[9]; standard conditions, Mn2+",1.5 μmolmg^−1h^−1
same,Km,"[9]; standard conditions, Mn2+, read-out: Km for 3TMP, 3′ phosphohydrolase reaction",60 µM

# From patent US20090246756A1, “Thermostable polypeptide having polynucleotide kinase activity and/or phosphatase activity” (Prokaria Ehe, priority 2004, published 2009)
